Results taken from patent US20190314452A1 (YUHAN, published 2019).

B1: DFD59: GLP1(GEG)-HyFc40 (Fc fusion)
chain: HGEGTFTSDVSSYLEEQAAKEFIAWLVKGGGEKEKEEQEERETKTPECPSHTQPLGVFLFPPKPKDTLMISRTPEVTCVVVDVSQEDPEVQFNWYVDGVEVHNAKTKPREEQFNSTYRVVSVLTVLHQDWLNGKEYKCKVSNKGLPSSIEKTISKAKGQPREPQVYTLPPSQEEMTKNQVSLTCLVKGFYPSDIAVEWESNGQPENNYKTTPPVLDSDGSFFLYSRLTVDKSRWQEGNVFSCSVMHEALHNHYTQKSLSLSLGK
B2: DFD23 (Fc fusion)
chain: HGEGTFTSDVSSYLEGQAAKEFIAWLVKGRGEKEKEEQEERETKTPECPSHTQPLGVFLFPPKPKDTLMISRTPEVTCVVVDVSQEDPEVQFNWYVDGVEVHNAKTKPREEQFNSTYRVVSVLTVLHQDWLNGKEYKCKVSNKGLPSSIEKTISKAKGQPREPQVYTLPPSQEEMTKNQVSLTCLVKGFYPSDIAVEWESNGQPENNYKTTPPVLDSDGSFFLYSRLTVDKSRWQEGNVFSCSVMHEALHNHYTQKSLSLSLGKGGGGSGGGGSGGGGSHPIPDSSPLLQFGGQVRQRYLYTDDAQQTEAHLEIREDGTVGGAADQSPESLLQLKALKPGVIQILGVKTSRFLCQRPDGALYGSLHFDPEACSFREEIRPDGYNVYQSEAHGLPLHLPGNKSPHRDPAPRGPARFLPLPGLPPALPEPPGILAPQPPDVGSSDPLSMVTGLEAVRSPSYAS

Biological target: human GLP-1 receptor (human, UniProt P43220 24-463)
Test: cell-based or functional assay

Binder | in vitro GLP-1 activity (intracellular cAMP, EC50 compared)
B1 | ~2 times higher than DFD69, DFD112 and DFD114
B2 | 2 to 3 times lower than the fusion proteins containing other GLP-1 mutant sequences
